What is called Km is the concentration of substrate that gives half-maximal velocity.

Our source for the Km values is doi:10.1101/2025.11.11.687647v1.

Substrate in this series: CC(=O)C(=O)O
Nature of the series: purified protein. As to conditions: pH 8.0; 25.0 °C.

B1: MtPC (Mycobacterium tuberculosis pyruvate carboxylase) (Mycobacterium tuberculosis H37Rv) (protein)
chain: MFSKVLVANRGEIAIRAFRAAYELGVGTVAVYPYEDRNSQHRLKADESYQIGDIGHPVHAYLSVDEIVATARRAGADAIYPGYGFLSENPDLAAACAAAGISFVGPSAEVLELAGNKSRAIAAAREAGLPVLMSSAPSASVDELLSVAAGMPFPLFVKAVAGGGGRGMRRVGDIAALPEAIEAASREAESAFGDPTVYLEQAVINPRHIEVQILADNLGDVIHLYERDCSVQRRHQKVIELAPAPHLDAELRYKMCVDAVAFARHIGYSCAGTVEFLLDERGEYVFIEMNPRVQVEHTVTEEITDVDLVASQLRIAAGETLEQLGLRQEDIAPHGAALQCRITTEDPANGFRPDTGRISALRTAGGAGVRLDGSTNLGAEISPYFDSMLVKLTCRGRDLPTAVSRARRAIAEFRIRGVSTNIPFLQAVLDDPDFRAGRVTTSFIDERPQLLTARASADRGTKILNFLADVTVNNPYGSRPSTIYPDDKLPDLDLRAAPPAGSKQRLVKLGPEGFARWLRESAAVGVTDTTFRDAHQSLLATRVRTSGLSRVAPYLARTMPQLLSVECWGGATYDVALRFLKEDPWERLATLRAAMPNICLQMLLRGRNTVGYTPYPEIVTSAFVQEATATGIDIFRIFDALNNIESMRPAIDAVRETGSAIAEVAMCYTGDLTDPGEQLYTLDYYLKLAEQIVDAGAHVLAIKDMAGLLRPPAAQRLVSALRSRFDLPVHLHTHDTPGGQLASYVAAWHAGADAVDGAAAPLAGTTSQPALSSIVAAAAHTEYDTGLSLSAVCALEPYWEALRKVYAPFESGLPGPTGRVYHHEIPGGQLSNLRQQAIALGLGDRFEEIEEAYAGADRVLGRLVKVTPTSKVVGDLALALVGAGVSADEFASDPARFGIPESVLGFLRGELGDPPGGWPEPLRTAALAGRGAARPTAQLAADDEIALSSVGAKRQATLNRLLFPSPTKEFNEHREAYGDTSQLSANQFFYGLRQGEEHRVKLERGVELLIGLEAISEPDERGMRTVMCILNGQLRPVLVRDRSIASAVPAAEKADRGNPGHIAAPFAGVVTVGVCVGERVGAGQTIATIEAMKMEAPITAPVAGTVERVAVSDTAQVEGGDLLVVVS
As to B1, the Km came to 2310 µM.
